Starred links: 1 amine or outer side, 2 acyl side, 3 side chain; linkers in the order of their positions; H or OH if unused. Positions of bridges follow the written chain, without caps; N, C: chain ends. Groups on a side chain read outwards from the residue. No end group written: not given here. *: point of attachment. X1 = (S)‑4‑Carboxy‑4‑(19-carboxynonadecanoylamino)butyryl, O=C(O)CCCCCCCCCCCCCCCCCCC(=O)N[C@@H](CCC(=O)*)C(=O)O; C20 diacid = O=C(O)CCCCCCCCCCCCCCCCCCC(=O)*; C18 diacid = O=C(O)CCCCCCCCCCCCCCCCC(=O)*; γGlu = O=C(O)[C@H](CCC(=O)[*:2])N[*:1]; AEEA = NCCOCCOCC(=O)O
T1: human calcitonin (a) receptor (human, UniProt P30988 25-474)
T1 sequence (looked up): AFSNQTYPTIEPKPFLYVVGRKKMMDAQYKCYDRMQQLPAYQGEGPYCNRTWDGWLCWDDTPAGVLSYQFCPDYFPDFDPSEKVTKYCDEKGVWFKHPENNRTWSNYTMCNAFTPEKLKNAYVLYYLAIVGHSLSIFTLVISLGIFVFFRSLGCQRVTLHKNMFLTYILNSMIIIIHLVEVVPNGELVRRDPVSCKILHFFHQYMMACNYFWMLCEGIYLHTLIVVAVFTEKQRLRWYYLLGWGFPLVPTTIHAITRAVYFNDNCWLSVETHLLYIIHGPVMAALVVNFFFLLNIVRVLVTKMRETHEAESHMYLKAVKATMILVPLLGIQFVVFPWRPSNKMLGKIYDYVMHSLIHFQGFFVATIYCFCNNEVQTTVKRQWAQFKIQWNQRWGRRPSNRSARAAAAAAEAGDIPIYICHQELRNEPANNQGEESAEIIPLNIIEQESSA

T2: human amylin 3(a) receptor (human calcitonin receptor + RAMP-3) (human, UniProt P30988 25-474; O60896 24-148)
T2 sequence (looked up) 1: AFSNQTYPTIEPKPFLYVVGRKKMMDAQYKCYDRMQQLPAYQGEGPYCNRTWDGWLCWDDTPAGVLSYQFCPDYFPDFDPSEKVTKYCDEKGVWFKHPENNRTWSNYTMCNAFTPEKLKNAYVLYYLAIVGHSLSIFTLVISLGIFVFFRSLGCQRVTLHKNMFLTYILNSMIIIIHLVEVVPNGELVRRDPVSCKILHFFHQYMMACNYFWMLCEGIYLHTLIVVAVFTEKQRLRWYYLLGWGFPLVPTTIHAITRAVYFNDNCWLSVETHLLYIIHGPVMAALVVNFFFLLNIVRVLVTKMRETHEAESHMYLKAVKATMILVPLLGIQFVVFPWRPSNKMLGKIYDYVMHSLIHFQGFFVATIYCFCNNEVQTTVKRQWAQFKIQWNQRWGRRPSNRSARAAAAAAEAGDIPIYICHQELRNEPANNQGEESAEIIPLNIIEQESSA
T2 sequence (looked up) 2: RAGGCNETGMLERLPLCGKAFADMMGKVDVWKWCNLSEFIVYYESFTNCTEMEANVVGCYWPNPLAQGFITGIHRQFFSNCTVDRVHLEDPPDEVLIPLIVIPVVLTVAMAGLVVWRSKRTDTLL


Assays:
[1] = target: T1, human calcitonin (a) receptor; assay: cell-based or functional assay
[2] = target: T2, human amylin 3(a) receptor (human …); assay: cell-based or functional assay

Binder	CTa receptor human EC50 [1]	Amylin receptor human EC50 [2]
{C18 diacid-γGlu-AEEA-AEEA}-ECNTATCATQRLAEFLHHSSNNFGPILPPTNVGSNTP-NH2 (disulfide 2-7; SMILES CC[C@H](C)[C@H](NC(=O)[C@@H]1CCCN1C(=O)CNC(=O)[C@H](Cc1ccccc1)NC(=O)[C@H](CC(N)=O)NC(=O)[C@H](CC(N)=O)NC(=O)[C@H](CO)NC(=O)[C@H](CO)NC(=O)[C@H](Cc1c[nH]cn1)NC(=O)[C@H](Cc1c[nH]cn1)NC(=O)[C@H](CC(C)C)NC(=O)[C@H](Cc1ccccc1)NC(=O)[C@H](CCC(=O)O)NC(=O)[C@H](C)NC(=O)[C@H](CC(C)C)NC(=O)[C@H](CCCNC(=N)N)NC(=O)[C@H](CCC(N)=O)NC(=O)[C@@H](NC(=O)[C@H](C)NC(=O)[C@@H]1CSSC[C@H](NC(=O)[C@H](CCC(=O)O)NC(=O)COCCOCCNC(=O)COCCOCCNC(=O)CC[C@H](NC(=O)CCCCCCCCCCCCCCCCC(=O)O)C(=O)O)C(=O)N[C@@H](CC(N)=O)C(=O)N[C@@H]([C@@H](C)O)C(=O)N[C@@H](C)C(=O)N[C@@H]([C@@H](C)O)C(=O)N1)[C@@H](C)O)C(=O)N[C@@H](CC(C)C)C(=O)N1CCC[C@H]1C(=O)N1CCC[C@H]1C(=O)N[C@H](C(=O)N[C@@H](CC(N)=O)C(=O)N[C@H](C(=O)NCC(=O)N[C@@H](CO)C(=O)N[C@@H](CC(N)=O)C(=O)N[C@H](C(=O)N1CCC[C@H]1C(N)=O)[C@@H](C)O)C(C)C)[C@@H](C)O)	0.288 nM	0.108 nM
{C20 diacid-γGlu}-GKCNTATCATQRLAEFLHHSSNNFGPILPPTNVGSHTY-NH2 (disulfide 3-8; SMILES CC[C@H](C)[C@H](NC(=O)[C@@H]1CCCN1C(=O)CNC(=O)[C@H](Cc1ccccc1)NC(=O)[C@H](CC(N)=O)NC(=O)[C@H](CC(N)=O)NC(=O)[C@H](CO)NC(=O)[C@H](CO)NC(=O)[C@H](Cc1c[nH]cn1)NC(=O)[C@H](Cc1c[nH]cn1)NC(=O)[C@H](CC(C)C)NC(=O)[C@H](Cc1ccccc1)NC(=O)[C@H](CCC(=O)O)NC(=O)[C@H](C)NC(=O)[C@H](CC(C)C)NC(=O)[C@H](CCCNC(=N)N)NC(=O)[C@H](CCC(N)=O)NC(=O)[C@@H](NC(=O)[C@H](C)NC(=O)[C@@H]1CSSC[C@H](NC(=O)[C@H](CCCCN)NC(=O)CNC(=O)CC[C@H](NC(=O)CCCCCCCCCCCCCCCCCCC(=O)O)C(=O)O)C(=O)N[C@@H](CC(N)=O)C(=O)N[C@@H]([C@@H](C)O)C(=O)N[C@@H](C)C(=O)N[C@@H]([C@@H](C)O)C(=O)N1)[C@@H](C)O)C(=O)N[C@@H](CC(C)C)C(=O)N1CCC[C@H]1C(=O)N1CCC[C@H]1C(=O)N[C@H](C(=O)N[C@@H](CC(N)=O)C(=O)N[C@H](C(=O)NCC(=O)N[C@@H](CO)C(=O)N[C@@H](Cc1c[nH]cn1)C(=O)N[C@H](C(=O)N[C@@H](Cc1ccc(O)cc1)C(N)=O)[C@@H](C)O)C(C)C)[C@@H](C)O) [N-alpha-[(S)-4-Carboxy-4-(19-carboxynonadecanoylamino)butyryl]-Gly-[Glu14,His17,His35]-pramlintide]	0.0705 nM	0.0955 nM
KCNTATCATQRLAEFLK([AEEA-AEEA-γGlu-C18 diacid])HSSSNFGPILPPTNVGSETY-NH2 (disulfide 2-7; N-terminus assumed; SMILES CC[C@H](C)[C@H](NC(=O)[C@@H]1CCCN1C(=O)CNC(=O)[C@H](Cc1ccccc1)NC(=O)[C@H](CC(N)=O)NC(=O)[C@H](CO)NC(=O)[C@H](CO)NC(=O)[C@H](CO)NC(=O)[C@H](Cc1c[nH]cn1)NC(=O)[C@H](CCCCNC(=O)COCCOCCNC(=O)COCCOCCNC(=O)CC[C@H](NC(=O)CCCCCCCCCCCCCCCCC(=O)O)C(=O)O)NC(=O)[C@H](CC(C)C)NC(=O)[C@H](Cc1ccccc1)NC(=O)[C@H](CCC(=O)O)NC(=O)[C@H](C)NC(=O)[C@H](CC(C)C)NC(=O)[C@H](CCCNC(=N)N)NC(=O)[C@H](CCC(N)=O)NC(=O)[C@@H](NC(=O)[C@H](C)NC(=O)[C@@H]1CSSC[C@H](NC(=O)[C@@H](N)CCCCN)C(=O)N[C@@H](CC(N)=O)C(=O)N[C@@H]([C@@H](C)O)C(=O)N[C@@H](C)C(=O)N[C@@H]([C@@H](C)O)C(=O)N1)[C@@H](C)O)C(=O)N[C@@H](CC(C)C)C(=O)N1CCC[C@H]1C(=O)N1CCC[C@H]1C(=O)N[C@H](C(=O)N[C@@H](CC(N)=O)C(=O)N[C@H](C(=O)NCC(=O)N[C@@H](CO)C(=O)N[C@@H](CCC(=O)O)C(=O)N[C@H](C(=O)N[C@@H](Cc1ccc(O)cc1)C(N)=O)[C@@H](C)O)C(C)C)[C@@H](C)O)	8.43 nM	1.75 nM

More lines, now with the values ahead:

CTa receptor human EC50 [1]	Amylin receptor human EC50 [2]	Binder
0.052 nM	0.054 nM	X1-GCNTATCATQRLAEFLHHSSNNFGPILPPTNVGSNTP-NH2 (disulfide 2-7; SMILES CC[C@H](C)[C@H](NC(=O)[C@@H]1CCCN1C(=O)CNC(=O)[C@H](Cc1ccccc1)NC(=O)[C@H](CC(N)=O)NC(=O)[C@H](CC(N)=O)NC(=O)[C@H](CO)NC(=O)[C@H](CO)NC(=O)[C@H](Cc1c[nH]cn1)NC(=O)[C@H](Cc1c[nH]cn1)NC(=O)[C@H](CC(C)C)NC(=O)[C@H](Cc1ccccc1)NC(=O)[C@H](CCC(=O)O)NC(=O)[C@H](C)NC(=O)[C@H](CC(C)C)NC(=O)[C@H](CCCNC(=N)N)NC(=O)[C@H](CCC(N)=O)NC(=O)[C@@H](NC(=O)[C@H](C)NC(=O)[C@@H]1CSSC[C@H](NC(=O)CNC(=O)CC[C@H](NC(=O)CCCCCCCCCCCCCCCCCCC(=O)O)C(=O)O)C(=O)N[C@@H](CC(N)=O)C(=O)N[C@@H]([C@@H](C)O)C(=O)N[C@@H](C)C(=O)N[C@@H]([C@@H](C)O)C(=O)N1)[C@@H](C)O)C(=O)N[C@@H](CC(C)C)C(=O)N1CCC[C@H]1C(=O)N1CCC[C@H]1C(=O)N[C@H](C(=O)N[C@@H](CC(N)=O)C(=O)N[C@H](C(=O)NCC(=O)N[C@@H](CO)C(=O)N[C@@H](CC(N)=O)C(=O)N[C@H](C(=O)N1CCC[C@H]1C(N)=O)[C@@H](C)O)C(C)C)[C@@H](C)O) [N-alpha-[(S)-4-Carboxy-4-(19-carboxynonadecanoylamino)butyryl]-[Gly1,Glu14,His17,Pro37]-pramlintide]
0.153 nM	0.133 nM	{C20 diacid-γGlu}-SKCNTATCATQRLAEFLHHSSNNFGPILPPTNVGSHTY-NH2 (disulfide 3-8; SMILES CC[C@H](C)[C@H](NC(=O)[C@@H]1CCCN1C(=O)CNC(=O)[C@H](Cc1ccccc1)NC(=O)[C@H](CC(N)=O)NC(=O)[C@H](CC(N)=O)NC(=O)[C@H](CO)NC(=O)[C@H](CO)NC(=O)[C@H](Cc1c[nH]cn1)NC(=O)[C@H](Cc1c[nH]cn1)NC(=O)[C@H](CC(C)C)NC(=O)[C@H](Cc1ccccc1)NC(=O)[C@H](CCC(=O)O)NC(=O)[C@H](C)NC(=O)[C@H](CC(C)C)NC(=O)[C@H](CCCNC(=N)N)NC(=O)[C@H](CCC(N)=O)NC(=O)[C@@H](NC(=O)[C@H](C)NC(=O)[C@@H]1CSSC[C@H](NC(=O)[C@H](CCCCN)NC(=O)[C@H](CO)NC(=O)CC[C@H](NC(=O)CCCCCCCCCCCCCCCCCCC(=O)O)C(=O)O)C(=O)N[C@@H](CC(N)=O)C(=O)N[C@@H]([C@@H](C)O)C(=O)N[C@@H](C)C(=O)N[C@@H]([C@@H](C)O)C(=O)N1)[C@@H](C)O)C(=O)N[C@@H](CC(C)C)C(=O)N1CCC[C@H]1C(=O)N1CCC[C@H]1C(=O)N[C@H](C(=O)N[C@@H](CC(N)=O)C(=O)N[C@H](C(=O)NCC(=O)N[C@@H](CO)C(=O)N[C@@H](Cc1c[nH]cn1)C(=O)N[C@H](C(=O)N[C@@H](Cc1ccc(O)cc1)C(N)=O)[C@@H](C)O)C(C)C)[C@@H](C)O) [N-alpha-[(S)-4-Carboxy-4-(19-carboxynonadecanoylamino)butyryl]-Ser-[Glu14,His17,His35]-pramlintide]
0.0525 nM	0.055 nM	{C20 diacid-γGlu}-KCNTATCATQRLAEFLVHSSNNFGPILPPTNVGSNTP-NH2 (disulfide 2-7; SMILES CC[C@H](C)[C@H](NC(=O)[C@@H]1CCCN1C(=O)CNC(=O)[C@H](Cc1ccccc1)NC(=O)[C@H](CC(N)=O)NC(=O)[C@H](CC(N)=O)NC(=O)[C@H](CO)NC(=O)[C@H](CO)NC(=O)[C@H](Cc1c[nH]cn1)NC(=O)[C@@H](NC(=O)[C@H](CC(C)C)NC(=O)[C@H](Cc1ccccc1)NC(=O)[C@H](CCC(=O)O)NC(=O)[C@H](C)NC(=O)[C@H](CC(C)C)NC(=O)[C@H](CCCNC(=N)N)NC(=O)[C@H](CCC(N)=O)NC(=O)[C@@H](NC(=O)[C@H](C)NC(=O)[C@@H]1CSSC[C@H](NC(=O)[C@H](CCCCN)NC(=O)CC[C@H](NC(=O)CCCCCCCCCCCCCCCCCCC(=O)O)C(=O)O)C(=O)N[C@@H](CC(N)=O)C(=O)N[C@@H]([C@@H](C)O)C(=O)N[C@@H](C)C(=O)N[C@@H]([C@@H](C)O)C(=O)N1)[C@@H](C)O)C(C)C)C(=O)N[C@@H](CC(C)C)C(=O)N1CCC[C@H]1C(=O)N1CCC[C@H]1C(=O)N[C@H](C(=O)N[C@@H](CC(N)=O)C(=O)N[C@H](C(=O)NCC(=O)N[C@@H](CO)C(=O)N[C@@H](CC(N)=O)C(=O)N[C@H](C(=O)N1CCC[C@H]1C(N)=O)[C@@H](C)O)C(C)C)[C@@H](C)O) [N-alpha-[(S)-4-Carboxy-4-(19-carboxynonadecanoylamino)butyryl]-[Glu14,Pro37]-pramlintide]
